B1: Alanine--glyoxylate aminotransferase, P21549 (parent)
chain: MASHKLLVTPPKALLKPLSIPNQLLLGPGPSNLPPRIMAAGGLQMIGSMSKDMYQIMDEIKEGIQYVFQTRNPLTLVISGSGHCALEAALVNVLEPGDSFLVGANGIWGQRAVDIGERIGARVHPMTKDPGGHYTLQEVEEGLAQHKPVLLFLTHGESSTGVLQPLDGFGELCHRYKCLLLVDSVASLGGTPLYMDRQGIDILYSGSQKALNAPPGTSLISFSDKAKKKMYSRKTKPFSFYLDIKWLANFWGCDDQPRMYHHTIPVISLYSLRESLALIAEQGLENSWRQHREAAAYLHGRLQALGLQLFVKDPALRLPTVTTVAVPAGYDWRDIVSYVIDHFDIEIMGGLGPSTGKVLRIGLLGCNATRENVDRVTEALRAALQHCPKKKL

Variants of: B1
Conditions: Homo sapiens; pH 7.4; Thermal; DSC; Hepes 20 mM; NaCl 200 mM; transition: 2; reversible: No; structure 1H0C; whole UniProt chain shown

MASHKLLVTPPKALLKPLSIPNQLLLGPGPSNLPPRIMAAGGLQMIGSMSKDMYQIMDEIKEGIQYVFQTRNPLTLVISGSGHCALEAALVNVLEPGDSFLVGANGIWGQRAVDIGERIGARVHPMTKDPGGHYTLQEVEEGLAQHKPVLLFLTHGESSTGVLQPLDGFGELCHRYKCLLLVDSVASLGGTPLYMDRQGIDILYSGSQKALNAPPGTSLISFSDKAKKKMYSRKTKPFSFYLDIKWLANFWGCDDQPRMYHHTIPVISLYSLRESLALIAEQGLENSWRQHREAAAYLHGRLQALGLQLFVKDPALRLPTVTTVAVPAGYDWRDIVSYVMDHFDIEIMGGLGPSTGKVLRIGLLGCNATRENVDRVTEALRAALQHCPKKKL [I340M]
Tm: 84.1 °C | change of melting temperature, mutant - wild type (higher = more stable): 14.1 °C | unfolding enthalpy (calorimetric): 530 kcal/mol

MASHKLLVTPPKALLKPLSIPNQLLLGPGPSNLPPRIMAAGGLQMIGSMSKEMYQIMDEIKEGIQYVFQTRNPLTLVISGSGHCALEAALVNVLEPGDSFLVGANGIWGQRAVDIGERIGARVHPMTKDPGGHYTLQEVEEGLAQHKPVLLFLTHGESSTGVLQPLDGFGELCHRYKCLLLVDSVASLGGTPLYMDRQGIDILYSGSQKALNAPPGTSLISFSDKAKKKMYSRKTKPFSFYLDIKWLANFWGCDDQPRMYHHTIPVISLYSLRESLALIAEQGLENSWRQHREAAAYLHGRLQALGLQLFVKDPALRLPTVTTVAVPAGYDWRDIVSYVMDHFDIEIMGGLGPSTGKVLRIGLLGCNATRENVDRVTEALRAALQHCPKKKL [D52E I340M]
Tm: 86.9 °C | change of melting temperature, mutant - wild type (higher = more stable): 16.9 °C | unfolding enthalpy (calorimetric): 573 kcal/mol

MASHKLLVTPPKALLKPLSIPNQLLLGPGPSNLPPRIMAAGGLQMIGSMSKDMYQIMDEIKEGIQYVFQTRNPLTLVISGSGHCALEAALVNVLEPGDSFLVGANGIWGQRAADIGERIGARVHPMTKDPGGHYTLQEVEEGLAQHKPVLLFLTHGESSTGVLQPLDGFGELCHRYKCLLLVDSVASLGGTPLYMDRQGIDILYSGSQKALNAPPGTSLISFSDKAKKKMYSRKTKPFSFYLDIKWLANFWGCDDQPRMYHHTIPVISLYSLRESLALIAEQGLENSWRQHREAAAYLHGRLQALGLQLFVKDPALRLPTVTTVAVPAGYDWRDIVSYVIDHFDIEIMGGLGPSTGKVLRIGLLGCNATRENVDRVTEALRAALQHCPKKKL [V113A]
Tm: 83.2 °C | change of melting temperature, mutant - wild type (higher = more stable): 13.2 °C | unfolding enthalpy (calorimetric): 502 kcal/mol

From FireProtDB (doi:10.1016/j.bbapap.2014.10.010)
